Experiment [1] concerns the target T1, human ErbB3 extracellular subdomain 3 (ECD^III, residues 329-532) (Homo sapiens, UniProt P21860).
T1 construct: ErbB3 (HER3) receptor, human, extracellular subdomain 3, residues 329-532; secreted with the Igκ leader of the pEE vector; Glycosylated, MW ~25 kDa; also called ErbB3 ECD^III; source: CHO-T-HC cells, transiently transfected, secreted, purified (CaptureSelect C-tag resin)
The experiment can be described thus: SPR; ErbB3 ECD^III immobilised on a CM5 chip by amine coupling; Biacore T200, 37 °C; HBS with 50 µg/mL BSA. The note with it: both partners purified.

Experiment [2] deals with T2, human ErbB3 extracellular domain (ECD, residues 21-643) (Homo sapiens, UniProt P21860).
T2 construct: ErbB3 (HER3) receptor, human, extracellular domain, residues 21-643; secreted with the Igκ leader of the pEE vector; Glycosylated, MW 75 kDa; also called ErbB3 ECD; HER3 extracellular domain; source: CHO-T-HC cells, transiently transfected, secreted, purified (IMAC on HisTrap, SEC on Superdex 200 pg)
T2 sequence (P21860 21-643 R488S): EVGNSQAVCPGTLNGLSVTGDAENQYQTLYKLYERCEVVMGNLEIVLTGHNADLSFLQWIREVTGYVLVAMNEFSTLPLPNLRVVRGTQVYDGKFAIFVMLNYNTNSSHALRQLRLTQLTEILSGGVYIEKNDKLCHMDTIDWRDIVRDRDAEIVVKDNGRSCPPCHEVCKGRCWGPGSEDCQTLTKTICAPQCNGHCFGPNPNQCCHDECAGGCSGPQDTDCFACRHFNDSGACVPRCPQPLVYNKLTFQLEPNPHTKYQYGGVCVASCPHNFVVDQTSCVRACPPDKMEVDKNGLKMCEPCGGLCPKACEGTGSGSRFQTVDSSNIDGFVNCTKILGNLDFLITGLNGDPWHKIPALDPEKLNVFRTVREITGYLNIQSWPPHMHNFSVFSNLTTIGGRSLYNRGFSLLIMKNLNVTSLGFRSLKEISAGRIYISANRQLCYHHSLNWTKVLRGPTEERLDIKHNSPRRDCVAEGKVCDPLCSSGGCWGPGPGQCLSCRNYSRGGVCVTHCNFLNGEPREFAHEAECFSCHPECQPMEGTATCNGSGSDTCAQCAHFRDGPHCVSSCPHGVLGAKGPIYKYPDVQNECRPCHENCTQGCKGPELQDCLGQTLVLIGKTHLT
The experiment can be described thus: SPR; ErbB3 ECD immobilised on a CM5 chip by amine coupling; Biacore T200, 37 °C; HBS with 50 µg/mL BSA; equilibrium response read 5 s before injection end, fitted by the Hill equation; geometric means of two experiments. The note with it: both partners purified.

In experiment [3] the target is T2, human ErbB3 extracellular domain (ECD, …). The experiment can be described thus: SPR; ErbB3 ECD immobilised on a CM5 chip by amine coupling; Biacore T200, 37 °C; antibodies in HBS (10 mM HEPES pH 7.4, 150 mM NaCl) with 50 µg/mL BSA; sensograms fitted globally by a 1:1 model at three concentrations near KD; geometric means of two experiments. The settings on record: both partners purified.

Experiment [4] concerns the target T3, extracellular domain of ErbB2 (Homo sapiens (assumed), UniProt P04626).
T3 construct: ErbB2 (HER2) receptor, extracellular domain; also called ErbB2 ECD
The experiment can be described thus: SPR; test of antibody specificity against the extracellular domain of ErbB2 (Figure S5); Biacore T200, CM5 chip, 37 °C. The settings on record: both partners purified.

Experiment [5] deals with T4, ErbB3 receptor on cancer cells (Homo sapiens, UniProt P21860).
T4 construct: ErbB3 (HER3) receptor, endogenous on human cancer cell lines; also called HER3; source: endogenous, on live MCF-7, SK-BR-3, BT-474 and Hep G2 cells
T4 sequence (P21860 20-1342): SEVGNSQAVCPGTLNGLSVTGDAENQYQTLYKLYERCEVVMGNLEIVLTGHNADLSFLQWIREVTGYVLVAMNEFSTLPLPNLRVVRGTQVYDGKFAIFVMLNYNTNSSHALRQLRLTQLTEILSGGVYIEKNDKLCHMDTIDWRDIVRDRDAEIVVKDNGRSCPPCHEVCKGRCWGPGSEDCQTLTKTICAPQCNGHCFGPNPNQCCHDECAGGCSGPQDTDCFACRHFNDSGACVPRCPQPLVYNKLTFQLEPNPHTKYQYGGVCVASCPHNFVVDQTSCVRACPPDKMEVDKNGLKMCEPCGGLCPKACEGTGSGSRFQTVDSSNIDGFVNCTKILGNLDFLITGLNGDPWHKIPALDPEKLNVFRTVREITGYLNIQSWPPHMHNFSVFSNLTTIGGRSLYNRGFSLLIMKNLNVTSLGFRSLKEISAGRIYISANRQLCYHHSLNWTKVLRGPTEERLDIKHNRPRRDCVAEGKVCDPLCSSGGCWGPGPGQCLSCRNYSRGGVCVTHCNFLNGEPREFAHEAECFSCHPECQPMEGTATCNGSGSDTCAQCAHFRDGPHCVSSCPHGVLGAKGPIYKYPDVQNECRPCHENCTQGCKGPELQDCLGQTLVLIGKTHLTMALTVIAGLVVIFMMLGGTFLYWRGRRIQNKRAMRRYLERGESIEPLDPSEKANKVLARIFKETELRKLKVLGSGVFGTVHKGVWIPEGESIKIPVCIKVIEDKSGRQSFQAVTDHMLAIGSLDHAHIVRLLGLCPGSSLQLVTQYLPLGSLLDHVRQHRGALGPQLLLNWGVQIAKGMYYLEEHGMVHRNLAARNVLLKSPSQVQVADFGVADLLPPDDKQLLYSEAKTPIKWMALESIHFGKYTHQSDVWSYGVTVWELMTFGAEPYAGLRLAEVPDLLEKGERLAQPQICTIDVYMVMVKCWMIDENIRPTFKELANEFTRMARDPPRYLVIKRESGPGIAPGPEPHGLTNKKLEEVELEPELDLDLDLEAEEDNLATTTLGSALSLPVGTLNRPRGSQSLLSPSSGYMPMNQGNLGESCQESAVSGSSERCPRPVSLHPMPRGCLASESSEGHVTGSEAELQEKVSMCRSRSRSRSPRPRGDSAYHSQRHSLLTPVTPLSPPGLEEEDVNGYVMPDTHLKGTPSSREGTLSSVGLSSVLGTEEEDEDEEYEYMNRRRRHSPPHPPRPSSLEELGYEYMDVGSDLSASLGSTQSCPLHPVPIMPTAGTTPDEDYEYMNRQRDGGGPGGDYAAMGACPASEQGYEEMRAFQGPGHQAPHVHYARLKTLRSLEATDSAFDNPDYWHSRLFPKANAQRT
Put plainly: immunostaining of cells or tissue; live cells stained 30 min in PBS with 5 µg/mL directly labelled antibody and Hoechst 33342; confocal microscopy; MCF-7, SK-BR-3, BT-474, Hep G2; K562 as negative control. The settings on record: one partner purified.

T1 sequence (P21860 329-532): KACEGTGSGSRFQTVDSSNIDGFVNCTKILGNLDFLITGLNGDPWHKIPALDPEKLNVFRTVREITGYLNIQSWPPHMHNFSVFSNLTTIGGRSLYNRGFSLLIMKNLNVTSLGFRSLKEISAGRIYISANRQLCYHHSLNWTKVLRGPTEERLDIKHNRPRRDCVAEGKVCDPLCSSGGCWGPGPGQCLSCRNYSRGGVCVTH

B1: BCD090-M456 (VHH)
VHH: QVQLVQSGGGLVQSGGSLKLSCVASGGPFSTYLMGWFRQAPGKEREFVTAISRSGLNTYYADSVKGRFTISRDNAKNTVYLQMHSLKPEDTAVYHCAARRGGTNSGSYYFDRPAVSDEYDLWGQGTLVTVSS
notes: llama VHH from a phage display library; the product left after TEV cleavage; Lacks the Cys22-Cys92 disulfide bond (cysteines reduced); CDR H3 of 23 residues; also called anti-ErbB3 single-domain antibody BCD090-M456; source: E. coli SHuffle T7 express or BL21(DE3), cytoplasmic, purified (IMAC, TEV cleavage, negative IMAC, ion exchange); not shown: His tag, N-terminal, cleaved; SUMO, N-terminal, …
For the molecule B1, the binding result in experiment [1] is “no binding”. Also, in experiment [2], binding was put at a Kd of 8600 ± 800 nM. Besides, in experiment [3], the affinity, expressed as Kd, was 3100 ± 200 nM; the off-rate constant (koff) was determined as 0.0022 s⁻¹; the kon was found to be 720 M⁻¹ s⁻¹.

B2: BCD090-P1 (VHH)
VHH: EVQLVQSGGGLVQPGGSLRLSCAASGRTSSKYAMGWFRQAPGKGTEFVATISWSDGSTYYADSVEGRFTISRDNAKNTVYLQMNSLKPEDTAVYYCAAAVDVLAGTFEYEYDYWGQGTLVTVSS
notes: llama VHH from a phage display library; the product left after TEV cleavage; Monomer by SEC; One disulfide bond Cys22-Cys92; also called anti-ErbB3 single-domain antibody BCD090-P1; source: E. coli SHuffle T7 express or BL21(DE3), cytoplasmic, purified (IMAC, TEV cleavage, negative IMAC, ion exchange); not shown: His tag, N-terminal, cleaved; SUMO, N-terminal, cleaved
Consider B2, for which the binding result in experiment [1] is “binds”. In experiment [2], this molecule had a Kd of 1.61 ± 0.06 nM. Also, in experiment [3], the Kd was 1.6 ± 0.2 nM, the koff was 0.003 s⁻¹ and the kon is 1.9e+06 M⁻¹ s⁻¹. The binding result in experiment [4] is reported as “no binding”.

B3: BCD090-P1 conjugated with Cy5 or AF488 (VHH)
VHH: EVQLVQSGGGLVQPGGSLRLSCAASGRTSSKYAMGWFRQAPGKGTEFVATISWSDGSTYYADSVEGRFTISRDNAKNTVYLQMNSLKPEDTAVYYCAAAVDVLAGTFEYEYDYWGQGTLVTVSS
notes: as the VHH of m1 (BCD090-P1); also called labeled BCD090-P1; source: E. coli, purified, then labelled with sulfo-Cy5 or AF488 NHS ester
As for B3, the binding result in experiment [5] is on record as “binds”.

B4: pelB-BCD090-P1-His5 (VHH)
VHH: EVQLVQSGGGLVQPGGSLRLSCAASGRTSSKYAMGWFRQAPGKGTEFVATISWSDGSTYYADSVEGRFTISRDNAKNTVYLQMNSLKPEDTAVYYCAAAVDVLAGTFEYEYDYWGQGTLVTVSS
notes: as the VHH of m1 (BCD090-P1), with the uncleaved pelB leader and a histidine tag; also called BCD090-P1 purified from the periplasm; periplasmically expressed BCD090-P1; source: E. coli, periplasmic expression (pET22b), purified; not shown: pelB leader (uncleaved), N-terminal, kept; His5, C-terminal, kept
Consider B4, for which the equilibrium dissociation constant (Kd) in experiment [2] was 6.5 ± 0.9 nM. Further, in experiment [3], the affinity, expressed as Kd, was 5.1 ± 0.9 nM; the koff turned out to be 0.0044 s⁻¹; the kon is 870000 M⁻¹ s⁻¹.

B5: BCD090-M2 (VHH)
VHH: QVQLVQSGGGLVQAGGSLRLSCAFSGRTFSMYTMGWFRQAPGKEREFVAANRGRGLSPDIADSVNGRFTISRDNAKNTLYLQMDSLKPEDTAVYYCAADLQYGSSWPQRSSAEYDYWGQGTTVTVSS
notes: llama VHH from a phage display library; the product left after TEV cleavage; no PDB id is printed; also called anti-ErbB3 single-domain antibody BCD090-M2; source: E. coli SHuffle T7 express, cytoplasmic, purified (IMAC, TEV cleavage, negative IMAC, ion exchange); not shown: His tag, N-terminal, cleaved; SUMO, N-terminal, cleaved
With B5, the binding result in experiment [1] is recorded as “no binding”. This molecule had a Kd in experiment [2] of 15 ± 1 nM. Besides, in experiment [3], the Kd turned out to be 16.5 ± 2 nM, the koff amounted to 0.0036 s⁻¹ and the kon turned out to be 220000 M⁻¹ s⁻¹. In addition, the binding result in experiment [4] is reported as “no binding”.

(Values after publication PMC8467012, “Targeting ErbB3 Receptor in Cancer with Inhibitory Antibodies from Llama” (Biomedicines, 2021).)
